Data: patent publication US20170137467A1 (CHROMOTEK, published 2017)

Assays:
Assay in all cases: pepscan: 15-mer peptide on OVA-microspheres, biotinylated BC2-Nb, streptavidin-PE
β-catenin peptide 37-51 = molecular target: T1, β-catenin peptide 37-51 (human, UniProt P35222)
T1 construct: synthetic 15-mer; additional N-terminal cysteine for coupling; also called Start 37 End 51
T1 peptide (looked up): SGATTTAPSLSGKGN
Description: (§1) As negative controls, microspheres comprising Ovalbumin and the Myc-peptide ([…]) covalently coupled to OVA-microspheres were used. […] Evaluation of the PE-signals were done in a Flexmap 3D (Luminex).

β-catenin peptide 93-107 = molecular target: T2, β-catenin peptide 93-107 (human, UniProt P35222)
T2 construct: synthetic 15-mer; additional N-terminal cysteine for coupling; also called Start 93 End 107
T2 peptide (looked up): RVRAAMFPETLDEGM
Description: as §1

β-catenin peptide 61-75 = molecular target: T3, β-catenin peptide 61-75 (human, UniProt P35222)
T3 construct: synthetic 15-mer; additional N-terminal cysteine for coupling; also called Start 61 End 75
T3 peptide (looked up): QVLYEWEQGFSQSFT
Description: as §1

β-catenin peptide 53-67 = molecular target: T4, β-catenin peptide 53-67 (human, UniProt P35222)
T4 construct: synthetic 15-mer; additional N-terminal cysteine for coupling; also called Start 53 End 67
T4 peptide (looked up): EEEDVDTSQVLYEWE
Description: as §1

β-catenin peptide 57-71 = molecular target: T5, β-catenin peptide 57-71 (human, UniProt P35222)
T5 construct: synthetic 15-mer; additional N-terminal cysteine for coupling; also called Start 57 End 71
T5 peptide (looked up): VDTSQVLYEWEQGFS
Description: as §1

β-catenin peptide 81-95 = molecular target: T6, β-catenin peptide 81-95 (human, UniProt P35222)
T6 construct: synthetic 15-mer; additional N-terminal cysteine for coupling; also called Start 81 End 95
T6 peptide (looked up): DIDGQYAMTRAQRVR
Description: as §1

β-catenin peptide 21-35 = molecular target: T7, β-catenin peptide 21-35 (human, UniProt P35222)
T7 construct: synthetic 15-mer; additional N-terminal cysteine for coupling; also called Start 21 End 35
T7 peptide (looked up): AVSHWQQQSYLDSGI
Description: as §1

β-catenin peptide 9-23 = molecular target: T8, β-catenin peptide 9-23 (human, UniProt P35222)
T8 construct: synthetic 15-mer; additional N-terminal cysteine for coupling; also called Start 9 End 23
T8 peptide (looked up): ELDMAMEPDRKAAVS
Description: as §1

β-catenin peptide 85-99 = molecular target: T9, β-catenin peptide 85-99 (human, UniProt P35222)
T9 construct: synthetic 15-mer; additional N-terminal cysteine for coupling; also called Start 85 End 99
T9 peptide (looked up): QYAMTRAQRVRAAMF
Description: as §1

β-catenin peptide 41-55 = molecular target: T10, β-catenin peptide 41-55 (human, UniProt P35222)
T10 construct: synthetic 15-mer; additional N-terminal cysteine for coupling; also called Start 41 End 55
T10 peptide (looked up): TTAPSLSGKGNPEEE
Description: as §1

β-catenin peptide 69-83 = molecular target: T11, β-catenin peptide 69-83 (human, UniProt P35222)
T11 construct: synthetic 15-mer; additional N-terminal cysteine for coupling; also called Start 69 End 83
T11 peptide (looked up): GFSQSFTQEQVADID
Description: as §1

β-catenin peptide 49-63 = molecular target: T12, β-catenin peptide 49-63 (human, UniProt P35222)
T12 construct: synthetic 15-mer; additional N-terminal cysteine for coupling; also called Start 49 End 63
T12 peptide (looked up): KGNPEEEDVDTSQVL
Description: as §1

β-catenin peptide 73-87 = molecular target: T13, β-catenin peptide 73-87 (human, UniProt P35222)
T13 construct: synthetic 15-mer; additional N-terminal cysteine for coupling; also called Start 73 End 87
T13 peptide (looked up): SFTQEQVADIDGQYA
Description: as §1

β-catenin peptide 29-43 = molecular target: T14, β-catenin peptide 29-43 (human, UniProt P35222)
T14 construct: synthetic 15-mer; additional N-terminal cysteine for coupling; also called Start 29 End 43
T14 peptide (looked up): SYLDSGIHSGATTTA
Description: as §1

[1] = molecular target: T15, β-catenin peptide 101-115 (human, UniProt P35222)
T15 construct: synthetic 15-mer; additional N-terminal cysteine for coupling
T15 peptide (looked up): ETLDEGMQIPSTQFD
Description: as §1

β-catenin peptide 45-59 = molecular target: T16, β-catenin peptide 45-59 (human, UniProt P35222)
T16 construct: synthetic 15-mer; additional N-terminal cysteine for coupling; also called Start 45 End 59
T16 peptide (looked up): SLSGKGNPEEEDVDT
Description: as §1

β-catenin peptide 77-91 = molecular target: T17, β-catenin peptide 77-91 (human, UniProt P35222)
T17 construct: synthetic 15-mer; additional N-terminal cysteine for coupling; also called Start 77 End 91
T17 peptide (looked up): EQVADIDGQYAMTRA
Description: as §1

β-catenin peptide 5-19 = molecular target: T18, β-catenin peptide 5-19 (human, UniProt P35222)
T18 construct: synthetic 15-mer; additional N-terminal cysteine for coupling; also called Start 5 End 19
T18 peptide (looked up): ADLMELDMAMEPDRK
Description: as §1

β-catenin peptide 25-39 = molecular target: T19, β-catenin peptide 25-39 (human, UniProt P35222)
T19 construct: synthetic 15-mer; additional N-terminal cysteine for coupling; also called Start 25 End 39
T19 peptide (looked up): WQQQSYLDSGIHSGA
Description: as §1

β-catenin peptide 1-15 = molecular target: T20, β-catenin peptide 1-15 (human, UniProt P35222)
T20 construct: synthetic 15-mer; additional N-terminal cysteine for coupling; also called Start 1 End 15
T20 peptide (looked up): MATQADLMELDMAME
Description: as §1

Measured: binding result

B1: BC2 nanobody (VHH)
VHH: QVQLVESGGGLVQPGGSLTLSCTASGFTLDHYDIGWFRQAPGKEREGVSCINNSDDDTYYADSVKGRFTIFMDNAKDTVYLQMNSLKPEDTAIYYCAEARGCKRGRYEYDFWGQGTQVTVSS
notes: Alpaca VHH, 122 aa; also called BC2-Nb; BC2 nanotrap (BC2-Nb immobilized on agarose/Sepharose beads); not shown: C-terminal 6xHis-tag added by the pHEN6 vector
no binding (tested: 1 µg/ml BC2-Nb): all assays above
